# Reference: patent US20240270846A1 (published 2024)
# Molecular target: T1, CD3 epsilon homodimer protein (UniProt P07766 23-126)
# T1 construct: also called CD3 (CD3 epsilon)
# Assay: SPR, CD3e homodimer on chip;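 note: surface plasmon resonance at 25 degrees C, antibodies flowed as analyte over CD3 epsilon homodimer amine-coupled to a CM4 chip, running buffer HBS-EP+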
# Procedure: An appropriate amount of CD3 epsilon homodimer protein was immobilized onto Sensor chip CM4 (GE Healthcare Japan Corp.) by the amine coupling method. Then, the antibody having an appropriate concentration was injected thereto as an analyte and allowed to interact with the CD3 epsilon homodimer protein on the sensor chip. Then, the sensor chip was regenerated by the injection of 10 mmol/L glycine-HCl (pH 1.5). The assay was conducted at 25 degrees C., and HBS-EP+(GE Healthcare Japan Corp.) was used as a running buffer. […] Each parameter was calculated using Biacore T200 Evaluation Software (GE Healthcare Japan Corp.).
# Specifically, when the amount of the GLS3000-containing antibody bound was defined as X and the amount of the L chain one-amino acid altered form bound was defined as Y, a value of Z (ratio of amounts bound)=Y/X was used.
# T1 sequence (P07766 23-126): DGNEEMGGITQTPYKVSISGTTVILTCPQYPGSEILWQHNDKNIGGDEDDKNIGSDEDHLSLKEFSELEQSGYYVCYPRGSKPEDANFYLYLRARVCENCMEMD
row,ratio of amounts bound (altered form / unaltered GLS3000 antibody),Binder
1,1.16,"GLS3000 S27eN one-arm antibody (H chain CE115HA000) (antibody, human IgG1, kappa, L234A L235A, N297A, name in Kabat numbering, one-arm antibody) heavy: QVQLVESGGGVVQPGRSLRLSCAASGFTFSNAWMHWVRQAPGKGLEWVAQIKAKSNNYATYYAESVKGRFTISRDDSKNSLYLQMNSLKTEDTAVYYCRYVHYGAYYGVDAWGQGTTVTVSSASTKGPSVFPLAPSSKSTSGGTAALGCLVKDYFPEPVTVSWNSGALTSGVHTFPAVLQSSGLYSLSSVVTVPSSSLGTQTYICNVNHKPSNTKVDKKVEPKSCDKTHTCPPCPAPEAAGGPSVFLFPPKPKDTLMISRTPEVTCVVVDVSHEDPEVKFNWYVDGVEVHNAKTKPREEQYASTYRVVSVLTVLHQDWLNGKEYKCKVSNKALPAPIEKTISKAKGQPREPQVYTLPPSRCELTKNQVSLSCAVKGFYPSDIAVEWESNGQPENNYKTTPPVLDSDGSFFLVSKLTVDKSRWQQGNVFSCSVMHEALHNHYTQKSLSLSPDYKDDDDK EPKSSDKTHTCPPCPAPELLGGPSVFLFPPKPKDTLMISRTPEVTCVVVDVSHEDPEVKFNWYVDGVEVHNAKTKPREEQYNSTYRVVSVLTVLHQDWLNGKEYKCKVSNKALPAPIEKTISKAKGQPREPQVCTLPPSRDELTKNQVSLWCLVKGFYPSDIAVEWESNGQPENNYKTTPPVLDSDGSFFLYSKLTVDKSRWQQGNVFSCSVMHEALHNRYTQKSLSLSP light: DIVMTQSPLSLPVTPGEPASISCRSSQSLVHNNRNTYLHWYQQKPGQAPRLLIYKVSNRFSGVPDRFSGSGSGTDFTLKISRVEAEDVGVYYCGQGTQVPYTFGQGTKLEIKRTVAAPSVFIFPPSDEQLKSGTASVVCLLNNFYPREAKVQWKVDNALQSGNSQESVTEQDSKDSTYSLSSTLTLSKADYEKHKVYACEVTHQGLSSPVTKSFNRGEC"
2,1.26,"GLS3000 S27eP one-arm antibody (H chain CE115HA000) (antibody, human IgG1, kappa, L234A L235A, N297A, name in Kabat numbering, one-arm antibody) heavy: QVQLVESGGGVVQPGRSLRLSCAASGFTFSNAWMHWVRQAPGKGLEWVAQIKAKSNNYATYYAESVKGRFTISRDDSKNSLYLQMNSLKTEDTAVYYCRYVHYGAYYGVDAWGQGTTVTVSSASTKGPSVFPLAPSSKSTSGGTAALGCLVKDYFPEPVTVSWNSGALTSGVHTFPAVLQSSGLYSLSSVVTVPSSSLGTQTYICNVNHKPSNTKVDKKVEPKSCDKTHTCPPCPAPEAAGGPSVFLFPPKPKDTLMISRTPEVTCVVVDVSHEDPEVKFNWYVDGVEVHNAKTKPREEQYASTYRVVSVLTVLHQDWLNGKEYKCKVSNKALPAPIEKTISKAKGQPREPQVYTLPPSRCELTKNQVSLSCAVKGFYPSDIAVEWESNGQPENNYKTTPPVLDSDGSFFLVSKLTVDKSRWQQGNVFSCSVMHEALHNHYTQKSLSLSPDYKDDDDK EPKSSDKTHTCPPCPAPELLGGPSVFLFPPKPKDTLMISRTPEVTCVVVDVSHEDPEVKFNWYVDGVEVHNAKTKPREEQYNSTYRVVSVLTVLHQDWLNGKEYKCKVSNKALPAPIEKTISKAKGQPREPQVCTLPPSRDELTKNQVSLWCLVKGFYPSDIAVEWESNGQPENNYKTTPPVLDSDGSFFLYSKLTVDKSRWQQGNVFSCSVMHEALHNRYTQKSLSLSP light: DIVMTQSPLSLPVTPGEPASISCRSSQSLVHPNRNTYLHWYQQKPGQAPRLLIYKVSNRFSGVPDRFSGSGSGTDFTLKISRVEAEDVGVYYCGQGTQVPYTFGQGTKLEIKRTVAAPSVFIFPPSDEQLKSGTASVVCLLNNFYPREAKVQWKVDNALQSGNSQESVTEQDSKDSTYSLSSTLTLSKADYEKHKVYACEVTHQGLSSPVTKSFNRGEC"
3,1.1,"GLS3000 S27eQ one-arm antibody (H chain CE115HA000) (antibody, human IgG1, kappa, L234A L235A, N297A, name in Kabat numbering, one-arm antibody) heavy: QVQLVESGGGVVQPGRSLRLSCAASGFTFSNAWMHWVRQAPGKGLEWVAQIKAKSNNYATYYAESVKGRFTISRDDSKNSLYLQMNSLKTEDTAVYYCRYVHYGAYYGVDAWGQGTTVTVSSASTKGPSVFPLAPSSKSTSGGTAALGCLVKDYFPEPVTVSWNSGALTSGVHTFPAVLQSSGLYSLSSVVTVPSSSLGTQTYICNVNHKPSNTKVDKKVEPKSCDKTHTCPPCPAPEAAGGPSVFLFPPKPKDTLMISRTPEVTCVVVDVSHEDPEVKFNWYVDGVEVHNAKTKPREEQYASTYRVVSVLTVLHQDWLNGKEYKCKVSNKALPAPIEKTISKAKGQPREPQVYTLPPSRCELTKNQVSLSCAVKGFYPSDIAVEWESNGQPENNYKTTPPVLDSDGSFFLVSKLTVDKSRWQQGNVFSCSVMHEALHNHYTQKSLSLSPDYKDDDDK EPKSSDKTHTCPPCPAPELLGGPSVFLFPPKPKDTLMISRTPEVTCVVVDVSHEDPEVKFNWYVDGVEVHNAKTKPREEQYNSTYRVVSVLTVLHQDWLNGKEYKCKVSNKALPAPIEKTISKAKGQPREPQVCTLPPSRDELTKNQVSLWCLVKGFYPSDIAVEWESNGQPENNYKTTPPVLDSDGSFFLYSKLTVDKSRWQQGNVFSCSVMHEALHNRYTQKSLSLSP light: DIVMTQSPLSLPVTPGEPASISCRSSQSLVHQNRNTYLHWYQQKPGQAPRLLIYKVSNRFSGVPDRFSGSGSGTDFTLKISRVEAEDVGVYYCGQGTQVPYTFGQGTKLEIKRTVAAPSVFIFPPSDEQLKSGTASVVCLLNNFYPREAKVQWKVDNALQSGNSQESVTEQDSKDSTYSLSSTLTLSKADYEKHKVYACEVTHQGLSSPVTKSFNRGEC"

# Second part, the binder before the results:
row,Binder,ratio of amounts bound (altered form / unaltered GLS3000 antibody)
1,"GLS3000 S27eK one-arm antibody (H chain CE115HA000) (antibody, human IgG1, kappa, L234A L235A, N297A, name in Kabat numbering, one-arm antibody) heavy: QVQLVESGGGVVQPGRSLRLSCAASGFTFSNAWMHWVRQAPGKGLEWVAQIKAKSNNYATYYAESVKGRFTISRDDSKNSLYLQMNSLKTEDTAVYYCRYVHYGAYYGVDAWGQGTTVTVSSASTKGPSVFPLAPSSKSTSGGTAALGCLVKDYFPEPVTVSWNSGALTSGVHTFPAVLQSSGLYSLSSVVTVPSSSLGTQTYICNVNHKPSNTKVDKKVEPKSCDKTHTCPPCPAPEAAGGPSVFLFPPKPKDTLMISRTPEVTCVVVDVSHEDPEVKFNWYVDGVEVHNAKTKPREEQYASTYRVVSVLTVLHQDWLNGKEYKCKVSNKALPAPIEKTISKAKGQPREPQVYTLPPSRCELTKNQVSLSCAVKGFYPSDIAVEWESNGQPENNYKTTPPVLDSDGSFFLVSKLTVDKSRWQQGNVFSCSVMHEALHNHYTQKSLSLSPDYKDDDDK EPKSSDKTHTCPPCPAPELLGGPSVFLFPPKPKDTLMISRTPEVTCVVVDVSHEDPEVKFNWYVDGVEVHNAKTKPREEQYNSTYRVVSVLTVLHQDWLNGKEYKCKVSNKALPAPIEKTISKAKGQPREPQVCTLPPSRDELTKNQVSLWCLVKGFYPSDIAVEWESNGQPENNYKTTPPVLDSDGSFFLYSKLTVDKSRWQQGNVFSCSVMHEALHNRYTQKSLSLSP light: DIVMTQSPLSLPVTPGEPASISCRSSQSLVHKNRNTYLHWYQQKPGQAPRLLIYKVSNRFSGVPDRFSGSGSGTDFTLKISRVEAEDVGVYYCGQGTQVPYTFGQGTKLEIKRTVAAPSVFIFPPSDEQLKSGTASVVCLLNNFYPREAKVQWKVDNALQSGNSQESVTEQDSKDSTYSLSSTLTLSKADYEKHKVYACEVTHQGLSSPVTKSFNRGEC",1.59
2,"GLS3000 S27eM one-arm antibody (H chain CE115HA000) (antibody, human IgG1, kappa, L234A L235A, N297A, name in Kabat numbering, one-arm antibody) heavy: QVQLVESGGGVVQPGRSLRLSCAASGFTFSNAWMHWVRQAPGKGLEWVAQIKAKSNNYATYYAESVKGRFTISRDDSKNSLYLQMNSLKTEDTAVYYCRYVHYGAYYGVDAWGQGTTVTVSSASTKGPSVFPLAPSSKSTSGGTAALGCLVKDYFPEPVTVSWNSGALTSGVHTFPAVLQSSGLYSLSSVVTVPSSSLGTQTYICNVNHKPSNTKVDKKVEPKSCDKTHTCPPCPAPEAAGGPSVFLFPPKPKDTLMISRTPEVTCVVVDVSHEDPEVKFNWYVDGVEVHNAKTKPREEQYASTYRVVSVLTVLHQDWLNGKEYKCKVSNKALPAPIEKTISKAKGQPREPQVYTLPPSRCELTKNQVSLSCAVKGFYPSDIAVEWESNGQPENNYKTTPPVLDSDGSFFLVSKLTVDKSRWQQGNVFSCSVMHEALHNHYTQKSLSLSPDYKDDDDK EPKSSDKTHTCPPCPAPELLGGPSVFLFPPKPKDTLMISRTPEVTCVVVDVSHEDPEVKFNWYVDGVEVHNAKTKPREEQYNSTYRVVSVLTVLHQDWLNGKEYKCKVSNKALPAPIEKTISKAKGQPREPQVCTLPPSRDELTKNQVSLWCLVKGFYPSDIAVEWESNGQPENNYKTTPPVLDSDGSFFLYSKLTVDKSRWQQGNVFSCSVMHEALHNRYTQKSLSLSP light: DIVMTQSPLSLPVTPGEPASISCRSSQSLVHMNRNTYLHWYQQKPGQAPRLLIYKVSNRFSGVPDRFSGSGSGTDFTLKISRVEAEDVGVYYCGQGTQVPYTFGQGTKLEIKRTVAAPSVFIFPPSDEQLKSGTASVVCLLNNFYPREAKVQWKVDNALQSGNSQESVTEQDSKDSTYSLSSTLTLSKADYEKHKVYACEVTHQGLSSPVTKSFNRGEC",1.23
3,"GLS3000 S27eL one-arm antibody (H chain CE115HA000) (antibody, human IgG1, kappa, L234A L235A, N297A, name in Kabat numbering, one-arm antibody) heavy: QVQLVESGGGVVQPGRSLRLSCAASGFTFSNAWMHWVRQAPGKGLEWVAQIKAKSNNYATYYAESVKGRFTISRDDSKNSLYLQMNSLKTEDTAVYYCRYVHYGAYYGVDAWGQGTTVTVSSASTKGPSVFPLAPSSKSTSGGTAALGCLVKDYFPEPVTVSWNSGALTSGVHTFPAVLQSSGLYSLSSVVTVPSSSLGTQTYICNVNHKPSNTKVDKKVEPKSCDKTHTCPPCPAPEAAGGPSVFLFPPKPKDTLMISRTPEVTCVVVDVSHEDPEVKFNWYVDGVEVHNAKTKPREEQYASTYRVVSVLTVLHQDWLNGKEYKCKVSNKALPAPIEKTISKAKGQPREPQVYTLPPSRCELTKNQVSLSCAVKGFYPSDIAVEWESNGQPENNYKTTPPVLDSDGSFFLVSKLTVDKSRWQQGNVFSCSVMHEALHNHYTQKSLSLSPDYKDDDDK EPKSSDKTHTCPPCPAPELLGGPSVFLFPPKPKDTLMISRTPEVTCVVVDVSHEDPEVKFNWYVDGVEVHNAKTKPREEQYNSTYRVVSVLTVLHQDWLNGKEYKCKVSNKALPAPIEKTISKAKGQPREPQVCTLPPSRDELTKNQVSLWCLVKGFYPSDIAVEWESNGQPENNYKTTPPVLDSDGSFFLYSKLTVDKSRWQQGNVFSCSVMHEALHNRYTQKSLSLSP light: DIVMTQSPLSLPVTPGEPASISCRSSQSLVHLNRNTYLHWYQQKPGQAPRLLIYKVSNRFSGVPDRFSGSGSGTDFTLKISRVEAEDVGVYYCGQGTQVPYTFGQGTKLEIKRTVAAPSVFIFPPSDEQLKSGTASVVCLLNNFYPREAKVQWKVDNALQSGNSQESVTEQDSKDSTYSLSSTLTLSKADYEKHKVYACEVTHQGLSSPVTKSFNRGEC",1.17
